This note sets out measurements from patent US20210214458A1 (ONCOC4, published 2021).

One assay deals with T1, CD24-GST fusion protein.
T1 construct: also called biotinylated CD24-GST; not shown: GST (glutathione S-transferase) fusion partner
In words: ELISA on coated CD24-GST with expression media, relative to chimeric PP6373 (FIG. 28). On the procedure: To select the best working combination of HuVH and HuVL for CD24 binding, different combinations were co-transfected into 293 cells for 72 hrs. Two ELISAs are then performed with expression media. ELISA 1: a 96 well plate was coated with purified goat-anti-human polyclonal IgG (GAH) and, after blocking, expression media or purified control IgGs were added, and goat-anti-human IgG-HRP was used as detection antibody. ELISA 2: a 96 well plate was coated with CD24-GST protein and, after blocking, expression media or purified control IgGs were added, and goat-anti-human IgG-HRP was used as detection antibody.
Background: In an ELISA, binding on a coated surface is turned into a signal by an enzyme label.

For assay [1], the target named is T2, N-SA-CD24 (CD24 stripped of N-glycan and sialic acid modifications) (not fully specified; N-glycans and sialic acid removed; O-glycans present; biotinylated in the Jurkat bispecific assays).
T2 construct: also called SA-N-CD24; SA-N-
T2 chain: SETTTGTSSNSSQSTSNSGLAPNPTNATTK
In words: ELISA titration on coated Fc removed CD24 treated with NanA + N-glycanase (FIG. 8).

Numbering of substitutions follows the chain as printed.

B1: H1L3 (humanized PP6373) (antibody, V domains shown)
VH: EVQFVESGGGLVQPGGSLKLSCAASGVTFSEAWMDWVRQASGKGLEWVGEIRDKPNSYVTYYAESVKGRFTISRDDSKNTAYLQMNSLKTEDTAVYYCTGAMDYWGQGTLVTVSS
VL: DIVMTQTPLSLSVTIGQPASISCKSSQSLLYSNGKTYLNWLLQKPGQSPKRLIYQVSKLDPGIPDRFSGSGSETDFTLKISRVEAEDVGIYYCMQGSSLPWTFGGGTKVEIKR
notes: Tested as expression medium of co-transfected 293 cells
As for B1, the binding result with CD24-GST fusion protein is listed as “binds”.

B2: PP6373 (affinity matured chimeric anti-CD24 antibody) (antibody, human IgG1, kappa, V domains shown)
VH: EVKFEESGGGLVQPGGSIKLSCAASGVTFSEAWMDWVRQSPEKGLEWVAEIRDKPNSYVTYYAESVKGRFTISRDDSKSRVYLQMNNLRTEDTGIYYCTGAMDYWGQGTSVTVSS
VL: B1 VL with L42Q, K44R, V88L, V109L
notes: also called P3050.ComF1.2H1; H4069 + L4071
As to B2, in assay [1], the “fold increase of binding against the parental antibody” value was around 100 fold.

B3: H4L3 (humanized PP6373) (antibody, V domains shown)
VH: B1 VH with G49A, N79S, A81V, V95I
VL: B1 VL
notes: as for B1
In the case of B3, the binding result with CD24-GST fusion protein is recorded as “binds”.
